Measured values as given in paper PMC9772109.

Target: H10 HA trimer of A/Jiangxi-Donghu/346/2013 (H10 JD13) (influenza A virus A/Jiangxi-Donghu/346/2013 (H10N8))
Experiment: negative stain EM, 3D reconstruction

H10 HA trimer of A/Jiangxi-Donghu/346/2013 (H10 JD13) (natural protein)
stoichiometry N: 3
